# B1: VAMP4 (parent)
# chain: FLRGPSGPRFGPRNDKIKHVQNQV
# Variants of: B1
# Assay: protein stability index of a GFP-peptide fusion (GPS, HEK-293T) (PSI 1-6); higher = more stable
# Conditions: c terminus: a fixed tail appended
# 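Note: lentivirally expressed fusions sorted by FACS into six bins by GFP to DsRed ratio, PSI derived from sequencing read proportions per bin multiplied by bin number.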
row,Variant,protein stability index
1,P12E,3.63
2,P12I,2.87
3,P12D,3.08
4,P12L,2.2
5,P12G,2.99
6,P12K,2.89
7,P12C,2.13
8,P12T,3.37
9,P12W,1.88
10,P12F,2.7
11,P12H,2.75
12,P12S,3.27
13,P12R,2.59
14,P12Q,2.34
15,P12Y,2.75
16,P12N,3.12
17,P12V,2.86
18,P12M,2.61
19,P12A,2.54
20,S6K,2.65
21,S6Q,2.56
22,S6N,2.43
23,S6Y,2.11
24,S6W,1.29

row,Variant,protein stability index
1,S6P,2.79
2,S6M,2.86
3,S6V,2.12
4,S6L,1.54
5,S6T,2.77
6,S6R,2.92
7,N14T,2.7
8,N14S,2.67
9,N14M,2.15
10,N14W,2.25
11,N14D,2.96
12,N14I,2.2
13,N14K,2.41
14,N14V,2.73
15,N14A,2.35
16,N14L,2.55
17,N14P,3.04
18,N14Y,2.04
19,N14E,3.39
20,N14F,2.29
21,N14Q,2.91
22,N14G,2.92
23,N14H,2.73
24,N14R,2.68

row,Variant,protein stability index
1,N14C,2.73
2,G7V,2.44
3,G7T,2.66
4,G7P,3.24
5,G7F,1.85
6,G7N,2.74
7,G7I,3.02
8,G7C,2.94
9,G7R,1.71
10,G7L,2.37
11,G7S,2.77
12,G7Y,1.96
13,G7Q,2.68
14,G7D,2.44
15,G7M,2.24
16,G7A,2.69
17,G7K,2.32
18,G7E,2.79
19,G7H,2.86
20,D15F,2.01
21,D15C,2.5
22,D15A,2.6
23,D15G,2.08
24,D15E,3

row,Variant,protein stability index
1,R9I,2.17
2,R9S,2.69
3,R9K,3.87
4,R9E,3
5,R9T,2.75
6,R9D,2.91
7,R9Q,2.93
8,R9Y,2.04
9,R9V,2.18
10,R9F,1.9
11,R9C,1.76
12,R9G,2.49
13,R9P,2.49
14,R9M,2.46
15,R9L,2.06
16,R9W,2.93
17,R9N,3.01
18,R9A,2
19,R9H,2.28
20,F10V,2.67
21,F10P,3.02
22,F10D,3.15
23,F10L,3.21
24,F10M,3.24

row,Variant,protein stability index
1,F10K,2.57
2,F10W,2.09
3,F10A,2.72
4,F10E,3.29
5,F10C,2.53
6,F10S,2.86
7,F10I,2.99
8,F10H,3.07
9,F10Y,2.27
10,F10T,3.36
11,F10R,3.15
12,F10Q,3.14
13,F10N,2.95
14,F10G,2.89
15,P8H,2.52
16,P8K,2.07
17,P8I,2.53
18,P8D,3.01
19,P8R,2.35
20,P8Q,1.96
21,P8A,2.62
22,P8Y,2.47
23,P8N,2.63
24,P8F,2.28

row,Variant,protein stability index
1,P8S,2.58
2,P8W,1.79
3,P8V,2.54
4,P8E,3.19
5,P8G,2.41
6,P8L,1.61
7,P8M,2.53
8,P8T,2.71
9,P8C,2.44
10,G11C,2.37
11,G11M,2.52
12,G11T,2.18
13,G11R,2.34
14,G11I,2.12
15,G11N,2.95
16,G11W,2.45
17,G11A,2.75
18,G11V,1.97
19,G11E,3.51
20,G11D,2.63
21,G11Y,2.16
22,G11L,2.47
23,G11H,2.81
24,G11S,2.65

row,Variant,protein stability index
1,G11Q,2.78
2,G11F,2.2
3,G11K,2.57
4,G11P,2.91
5,R13A,2.32
6,R13T,2.8
7,R13N,3.74
8,R13V,2.62
9,R13S,3.11
10,R13I,2.43
11,R13M,2.89
12,R13W,1.87
13,R13K,2.58
14,R13E,3.15
15,R13Q,3.6
16,R13G,2.74
17,R13H,2.17
18,R13L,2.02
19,R13F,2.35
20,R13C,2.33
21,R13D,3.39
22,R13P,3.06
23,R13Y,2.31

# Reference: the supplement of paper PMC10567573
